Measured values published in patent US8936806B2, “Periostin induces proliferation of cardiomyocytes and promotes cardiac regeneration” (Children's Medical Center Corporation, priority 2007, dated 2015).
Entries after “also recorded” stand apart in the source; their conditions may differ.

Columns and labels:
[1] = system: ERK1/2 and Akt; conditions: neonatal cardiomyocytes
Experimental: Primary cardiomyocytes or heart tissue were lysed in 20 mM Tris (pH 7.5), 150 mM NaCl, 10 mM EDTA, 1 mM EGTA, 1% Triton X-100, […], 1 mM β-glycerol phosphate, 1 mM Na3VO4, 1 μg/ml, leupeptin, 1% NP-40 and 0.24 mg/mL Pefabloc SC (Roche) at 4° C. Protein concentrations were determined using the BCA assay (Pierce, Rockford, Ill.). Forty μg of cell lysate was separated on 10% SDS-polyacrylamide gels, blotted onto nitrocellulose membranes (Amersham, Piscataway, N. J.), which were then incubated with antibodies according to manufacturer's directions, followed by visualization with ECL reagent (Amersham).

[2] = system: primary neonatal rat ventricular cardiomyocytes; experiment: Cardiomyocyte proliferation by cell count (hemocytometer); assay type: cell-based
Experimental: To determine cardiomyocyte proliferation, primary neonatal rat ventricular cardiomyocytes were quantified by counting with a hemocytometer after 3 days and 6 days of stimulation. To determine cardiomyocyte survival, primary neonatal rat ventricular cardiomyocytes were pre-treated with 500 ng/mL periostin or buffer for 30 min and then exposed to 0.5 μM doxycycline or 100 ng/mL TNFα for 24 hr and quantified by counting. Corresponding samples were stained with an antibody directed against tropomyosin as a cardiomyocyte marker to control for the percentage of differentiated cardiomyocytes. Apoptotic cardiomyocyte nuclei were determined after 24 hr with the In situ Cell Death Detection Kit (Roche, Indianapolis, Ind.) in combination with staining for troponin I.

[3] = Diffusion range and presence of recombinant periostin in myocardium after epicardial Gelfoam patch; assay type: in vivo, rat; conditions: after 12 weeks
Experimental: To develop a long-term delivery system for recombinant periostin, we determined if recombinant periostin associated with Gelfoam, a biodegradable biological scaffold. Gelfoam patches (Pfizer, New York, N.Y.) of 1 cm^2 diameter were loaded with 100 μg of recombinant human periostin and incubated with 1 mL of PBS at 37° C. with continuous agitation for 10 weeks. The supernatant was replaced every 2 weeks and the concentration of recombinant periostin in the supernatant was determined by Western blot using a polyclonal antibody directed against human periostin (Abeam). The diffusion range of recombinant periostin in myocardium was determined with a polyclonal antibody directed against human periostin followed by immunofluorescence microscopy. Presence of periostin in the myocardium was determined by Western blot using a polyclonal antibody directed against human periostin (Abeam).
Adult male Sprague-Dawley rats (300 gm, Charles River Laboratories) underwent experimental myocardial infarction as described (del Monte, F. et al. Abrogation of ventricular arrhythmias in a model of ischemia and reperfusion by targeting myocardial calcium cycling. Proc Natl Acad Sci USA 101, 5622-7 (2004)). The survival rate was 67%. Gelfoam loaded with 100 μg of recombinant periostin or with buffer were applied over the myocardial infarction at the time of surgery. […]

[4] = system: adult ventricular cardiomyocytes; experiment: Transcription of fetal gene program (RT-PCR) in adult ventricular cardiomyocytes; assay type: cell-based, rat
[5] = system: Adult male Sprague-Dawley rats; experiment: Rat model of myocardial infarction: echocardiography and catheterization; assay type: in vivo; conditions: for Maximum left ventricular elastance / Maximum rate of left ventricular pressure rise / Preload-recruitable stroke work / Slope of end-systolic pressure-volume relationship: catheterization, 12 weeks
Experimental: Adult male Sprague-Dawley rats (300 gm, Charles River Laboratories) underwent experimental myocardial infarction as described (del Monte, F. et al. Abrogation of ventricular arrhythmias in a model of ischemia and reperfusion by targeting myocardial calcium cycling. Proc Natl Acad Sci USA 101, 5622-7 (2004)). The survival rate was 67%. Gelfoam loaded with 100 μg of recombinant periostin or with buffer were applied over the myocardial infarction at the time of surgery. Rats received 3 intraperitoneal BrdU injections (70 μmol/kg body weight) with a half-life of 2 hr every 48 hr over a period of 7 days. Echocardiography and hemodynamic catheterization were performed as described (Prunier, F. et al. Am J Physiol Heart Circ Physiol (2006)).

[6] = system: differentiated cardiomyocytes; experiment: Hypertrophy by [3H]leucine uptake; assay type: cell-based, rat; conditions: phenylephrine 10 mM [sic]; all time points tested
Description: Induction of the fetal gene program is accompanied by increased protein synthesis leading to cardiomyocyte hypertrophy. We assessed cardiomyocyte hypertrophy by measuring uptake of [^3H]leucine.

[7] = 12 weeks after MI, listed as Periostin

B1: periostin: Recombinant periostin, purified from HEK293 cells expressing the full-length human cDNA; secreted protein of 834 amino acids (Seq ID. No. 1) (protein, listed as Homo sapiens)
chain: MIPFLPMFSLLLLLIVNPINANNHYDKILAHSRIRGRDQGPNVCALQQILGTKKKYFSTCKNWYKKSICGQKTTVLYECCPGYMRMEGMKGCPAVLPIDHVYGTLGIVGATTTQRYSDASKLREEIEGKGSFTYFAPSNEAWDNLDSDIRRGLESNVNVELLNALHSHMINKRMLTKDLKNGMIIPSMYNNLGLFINHYPNGVVTVNCARIIHGNQIATNGVVHVIDRVLTQIGTSIQDFIEAEDDLSSFRAAAITSDILEALGRDGHFTLFAPTNEAFEKLPRGVLERFMGDKVASEALMKYHILNTLQCSESIMGGAVFETLEGNTIEIGCDGDSITVNGIKMVNKKDIVTNNGVIHLIDQVLIPDSAKQVIELAGKQQTTFTDLVAQLGLASALRPDGEYTLLAPVNNAFSDDTLSMVQRLLKLILQNHILKVKVGLNELYNGQILETIGGKQLRVFVYRTAVCIENSCMEKGSKQGRNGAIHIFREIIKPAEKSLHEKLKQDKRFSTFLSLLEAADLKELLTQPGDWTLFVPTNDAFKGMTSEEKEILIRDKNALQNIILYHLTPGVFIGKGFEPGVTNILKTTQGSKIFLKEVNDTLLVNELKSKESDIMTTNGVIHVVDKLLYPADTPVGNDQLLEILNKLIKYIQIKFVRGSTFKEIPVTVYTTKIITKVVEPKIKVIEGSLQPIIKTEGPTLTKVKIEGEPEFRLIKEGETITEVIHGEPIIKKYTKIIDGVPVEITEKETREERIITGPEIKYTRISTGGGETEETLKKLLQEEVTKVTKFIEGGDGHLFEDEEIKRLLQGDTPVRKLQANKKVQGSRRRLREGRSQ
- activation of ERK1/2 and Akt [1]: activated
- increase of cardiomyocyte proliferation ([2]; after 3 days): 3.6 fold
- increase of cardiomyocyte proliferation ([2]; after 6 days): 4.2 fold
- presence of periostin in the left ventricle by immunoblotting [3]: confirmed presence
- distance from the epicardium to the farthest diffusion range of periostin ([3]; epicardial Gelfoam patch): 461±62
- transcription of SERCA2 [4]: slightly increased
- transcription of β-MHC, SMA and ANF [4]: not increased
- Ejection fraction ([5]; 1 week after MI): 53%
- End-diastolic dimension ([5]; 1 week after MI): 8.1 ± 0.4 mm
- End-systolic dimension ([5]; 1 week after MI): 6.1 ± 0.4 mm
- Shortening fraction ([5]; 1 week after MI, periostin Gelfoam 100 μg): 25%
- Shortening fraction ([5]; 1 week after MI, periostin Gelfoam 100 μg, listed as Periostin): 25.2 ± 2.1%
- Ejection fraction ([5]; 1 week after MI, listed as Periostin): 52.6 ± 2.9%
- Ejection fraction ([5]; 12 weeks after MI): 66%
- End-diastolic dimension ([5]; 12 weeks after MI): significantly smaller
- End-systolic dimension ([5]; 12 weeks after MI): 6 ± 0.5 mm
- Shortening fraction ([5]; 12 weeks after MI): 33%
- Ejection fraction [5, 7]: 65.9 ± 3.8%
- End-diastolic dimension [5, 7]: 8.4 ± 0.2 mm
- Shortening fraction [5, 7]: 33.0 ± 2.6%
- Maximum left ventricular elastance [5]: higher
- Maximum rate of left ventricular pressure rise [5]: higher
- Preload-recruitable stroke work [5]: higher
- Slope of end-systolic pressure-volume relationship [5]: steeper slope
- Maximum left ventricular elastance ([5]; listed as Periostin): 2.5 ± 1
- Maximum rate of left ventricular pressure rise ([5]; listed as Periostin): 4821 ± 513 mm Hg/s
- Preload-recruitable stroke work ([5]; listed as Periostin): 68.6 ± 13.9 mm Hg
- Slope of end-systolic pressure-volume relationship ([5]; listed as Periostin): 1.4 ± 0.2 mm Hg/μL
- [3H]leucine uptake (hypertrophy) [6]: did not induce uptake; also recorded: did not induce hypertrophy
